What was measured:
[1] = target: T1, CEACAM1 protein overexpressed on SW620 cells (UniProt P13688 35-526, limits assumed); test: flow cytometry on SW620-CEACAM1 cells
T1 construct: whole, on cells; also called SW620-CEACAM1
T1 sequence (looked up): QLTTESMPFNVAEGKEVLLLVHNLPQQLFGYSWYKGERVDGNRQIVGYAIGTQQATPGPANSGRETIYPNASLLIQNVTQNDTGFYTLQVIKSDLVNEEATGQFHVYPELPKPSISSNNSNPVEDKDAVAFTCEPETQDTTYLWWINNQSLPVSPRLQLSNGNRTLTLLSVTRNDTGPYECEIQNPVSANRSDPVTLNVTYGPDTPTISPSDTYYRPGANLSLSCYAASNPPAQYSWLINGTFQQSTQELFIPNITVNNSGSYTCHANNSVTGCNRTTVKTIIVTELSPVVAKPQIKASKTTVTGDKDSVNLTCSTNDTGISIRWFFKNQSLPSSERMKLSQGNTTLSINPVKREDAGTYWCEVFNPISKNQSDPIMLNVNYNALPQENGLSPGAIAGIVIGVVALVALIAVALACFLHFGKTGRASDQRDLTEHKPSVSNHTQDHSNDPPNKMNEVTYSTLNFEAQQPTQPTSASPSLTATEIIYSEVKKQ
Protocol: (§1) Flow cytometry (FACS) was used to detect the binding of antibody to LOVO tumor cells that naturally expressed human CEACAM5 protein or cells that overexpressed different CEACAM proteins. In short, cells were first collected, washed with PBS, counted, and diluted to obtain 2*10⁶/ml cell suspension; 10 μl of an antibody working solution was added to 100 μl of the cell suspension, and incubated at 4° C. for 30 min in the dark; after washing twice with PBS, a corresponding fluorescent-labeled secondary antibody Goat-anti-Human IgG (H+L) (Invitrogen) was added, incubated at 4° C. for 30 min in the dark, after washing twice with PBS, it was suspended in 400 μl of FACS buffer, and the binding situations of the antibody to the cells were detected by FACS.
(§2) The binding situations of the supernatants of the chimeric antibody UM05-6L and the control antibody UM05-8 (anti-CEACAM5 antibody, prepared by the hybridoma method in our laboratory) to different cells at a concentration of 3 μg/mL were detected, in which SW620-CEACAM1 was a cell overexpressing CEACAM1 protein, SW620-CEACAM3 was a cell overexpressing CEACAM3 protein, CHO-CEACAM6 was a cell overexpressing CEACAM6 protein, CHO-CEACAM7 was a cell overexpressing CEACAM7 protein, and CHO-CEACAM8 was a cell overexpressing CEACAM8 protein. […]

[2] = target: T2, CEACAM3 protein overexpressed on SW620 cells (UniProt P40198 35-252, limits assumed); test: flow cytometry on SW620-CEACAM3 cells
T2 construct: whole, on cells; also called SW620-CEACAM3
T2 sequence (looked up): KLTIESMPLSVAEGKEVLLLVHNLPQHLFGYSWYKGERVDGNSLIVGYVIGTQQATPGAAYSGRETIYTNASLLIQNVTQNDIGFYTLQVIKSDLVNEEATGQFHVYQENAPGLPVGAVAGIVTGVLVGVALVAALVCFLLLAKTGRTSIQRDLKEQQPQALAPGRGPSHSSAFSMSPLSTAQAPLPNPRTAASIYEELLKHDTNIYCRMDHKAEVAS
Protocol: as §1, §2

[3] = target: T3, human CEACAM5 protein naturally expressed on LOVO tumor cells (human, UniProt P06731 35-685); test: flow cytometry on LOVO tumor cells that naturally express human CEACAM5
T3 construct: whole, on cells; Cell-surface CEACAM5 on tumor cell lines; also called LOVO cells; CEACEM5
T3 sequence (looked up): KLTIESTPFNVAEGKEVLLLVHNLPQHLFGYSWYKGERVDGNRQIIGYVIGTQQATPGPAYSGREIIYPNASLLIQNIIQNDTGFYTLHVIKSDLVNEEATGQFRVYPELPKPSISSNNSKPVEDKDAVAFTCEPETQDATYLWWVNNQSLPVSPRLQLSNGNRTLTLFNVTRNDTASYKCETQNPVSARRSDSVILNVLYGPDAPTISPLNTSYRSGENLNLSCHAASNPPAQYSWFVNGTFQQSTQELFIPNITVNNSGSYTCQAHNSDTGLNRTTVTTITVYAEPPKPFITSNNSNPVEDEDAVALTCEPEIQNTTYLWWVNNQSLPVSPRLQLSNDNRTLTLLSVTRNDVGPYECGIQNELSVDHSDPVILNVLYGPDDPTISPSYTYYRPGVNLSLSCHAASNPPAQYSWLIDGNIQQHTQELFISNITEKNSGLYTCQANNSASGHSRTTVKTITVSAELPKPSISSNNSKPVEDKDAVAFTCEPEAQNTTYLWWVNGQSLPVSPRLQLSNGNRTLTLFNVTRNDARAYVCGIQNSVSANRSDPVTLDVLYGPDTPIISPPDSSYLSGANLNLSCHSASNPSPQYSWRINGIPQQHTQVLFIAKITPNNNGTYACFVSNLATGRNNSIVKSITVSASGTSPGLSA
Protocol: as §1
Furthermore, we used FACS to detect the EC50 of the chimeric antibody UM05-6L binding to LOVO tumor cells that naturally expressed human CEACAM5. […] Based on the above results, the chimeric antibody UM05-6L had excellent binding affinity, specificity and selectivity to CEACAM5.

human CEACAM5 protein = target: T4, human CEACAM5 protein (human, UniProt P06731 35-685, limits assumed); test: ELISA, plate coated with human CEACAM5 protein at 1 µg/mL, goat anti-human IgG HRP
T4 construct: Protein used as ELISA coating; the immunogen was CEACAM5 protein (L2C01001) purified from tumor patients; also called CD66e; carcinoembryonic antigen cell adhesion molecule 5
T4 sequence (looked up): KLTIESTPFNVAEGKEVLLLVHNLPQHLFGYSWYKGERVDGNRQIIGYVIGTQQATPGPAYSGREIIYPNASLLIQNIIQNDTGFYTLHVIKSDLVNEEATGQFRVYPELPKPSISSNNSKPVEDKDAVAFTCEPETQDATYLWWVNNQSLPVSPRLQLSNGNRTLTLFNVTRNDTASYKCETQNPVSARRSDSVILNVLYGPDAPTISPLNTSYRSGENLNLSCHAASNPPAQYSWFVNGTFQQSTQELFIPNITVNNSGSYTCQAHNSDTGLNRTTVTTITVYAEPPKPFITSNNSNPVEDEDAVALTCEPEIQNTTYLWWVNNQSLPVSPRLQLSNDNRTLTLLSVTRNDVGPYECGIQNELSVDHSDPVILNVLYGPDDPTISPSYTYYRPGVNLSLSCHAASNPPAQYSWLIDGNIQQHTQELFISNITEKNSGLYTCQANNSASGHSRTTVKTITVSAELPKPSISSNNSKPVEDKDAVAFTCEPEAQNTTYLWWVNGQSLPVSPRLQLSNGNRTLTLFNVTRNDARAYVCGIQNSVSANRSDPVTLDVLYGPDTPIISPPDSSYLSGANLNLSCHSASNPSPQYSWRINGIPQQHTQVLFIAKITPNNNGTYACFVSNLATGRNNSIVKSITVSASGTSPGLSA
Protocol: On the next day, it was first washed with 300 μL of PBST (Tween20: 0.5‰) for 3 times, then blocked with 100 μL/well of 5% BSA/PBS for 1 hour, and shaken at room temperature. Washing was performed 3 times with 300 μL of PBST. A series of dilution solutions of antibody samples were prepared with PBS, and added at 100 μL/well to the 96-well plate and shaken at room temperature for 1 hour. Washing was performed 3 times with 300 μL of PBST. A secondary antibody goat anti-human IgG HRP solution was prepared, added at 100 μL/well to the 96-well plate, and shaken at room temperature for 30 minutes. Washing was performed 4 times with 300 μL of PBST. 100 μL/well TMB was added to perform color development for 20 min. 100 μL/well of 0.6N H₂SO₄ was added to stop the color development, and OD450 nm was detected.

[4] = target: T5, CEACAM6 protein overexpressed on CHO cells (UniProt P40199 35-320, limits assumed); test: flow cytometry on CHO-CEACAM6 cells
T5 construct: whole, on cells; also called CHO-CEACAM6
T5 sequence (looked up): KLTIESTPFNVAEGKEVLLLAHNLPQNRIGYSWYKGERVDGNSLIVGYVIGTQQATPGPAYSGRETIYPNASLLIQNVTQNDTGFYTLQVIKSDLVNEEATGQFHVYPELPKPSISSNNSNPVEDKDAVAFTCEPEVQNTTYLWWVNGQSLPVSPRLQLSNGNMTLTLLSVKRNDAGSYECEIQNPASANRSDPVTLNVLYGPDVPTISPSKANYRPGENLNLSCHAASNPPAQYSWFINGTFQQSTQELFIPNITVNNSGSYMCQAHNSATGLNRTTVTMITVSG
Protocol: as §1, §2

[5] = target: T6, CEACAM7 protein overexpressed on CHO cells (UniProt Q14002 36-242, limits assumed); test: flow cytometry on CHO-CEACAM7 cells
T6 construct: whole, on cells; also called CHO-CEACAM7
T6 sequence (looked up): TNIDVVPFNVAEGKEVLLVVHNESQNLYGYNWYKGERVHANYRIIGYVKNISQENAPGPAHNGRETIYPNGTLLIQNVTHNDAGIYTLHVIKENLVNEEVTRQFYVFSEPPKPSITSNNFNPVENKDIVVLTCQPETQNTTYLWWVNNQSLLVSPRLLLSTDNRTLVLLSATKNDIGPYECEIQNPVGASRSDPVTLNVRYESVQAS
Protocol: as §1, §2

binding result [1]: no binding (tested: 3 µg/mL) | binding result [2]: no binding (tested: 3 µg/mL) | EC50 [3]: 0.276 µg/mL | EC50 (human CEACAM5 protein): 0.0475 µg/mL | binding result [4]: no binding (tested: 3 µg/mL) | binding result [5]: no binding (tested: 3 µg/mL)
B1: human-mouse chimeric antibody UM05-6L (antibody, human IgG1, kappa, V domains shown)
VH: EVQLQQSGPELVKPGASVKISCKASGYTFTDYYLNWVKQSPGKSLEWIGNINPINDFTTYNQKFKAKATLTVDKSSTTSYMALRSLTSEDSAVYYCTRYDGYFAYWGQGTTLTVSS
VL: DIQMNQSPSSLSASLGDTITITCHASQNINVWLSWYQQKPGNIPKLLIYKASNLHTGVPSRFSGSGSGTGFTLTISSLQPEDIATYYCQQGQSYPWTFGGGTKLEIKR
notes: expressed in HEK293 cells, purified on Protein A

Reference: patent US20220235142A1 (SHANGHAI GENBASE BIOTECHNOLOGY, published 2022)
